This is an account of results in US20240018269A1 (MACFARLANE BURNET INSTITUTE FOR MEDICAL RESEARCH AND PUBLIC …, published 2024).

Assay [1] addresses T1, recombinant soluble FcγRIIb (human, UniProt P31994 43-217).
T1 construct: extracellular domain; also called rsFcγRIIb
T1 sequence (looked up): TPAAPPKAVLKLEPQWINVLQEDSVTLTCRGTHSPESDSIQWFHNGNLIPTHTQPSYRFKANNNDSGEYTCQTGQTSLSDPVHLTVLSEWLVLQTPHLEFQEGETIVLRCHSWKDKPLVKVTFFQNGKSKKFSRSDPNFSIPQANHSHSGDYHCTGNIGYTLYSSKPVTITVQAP
Briefly: BLI (Octet); anti-TNP IgG captured on TNP-BSA-biotin, rsFcγR in solution; global 1:1 Langmuir fit. Here is the method:
Affinity measurements of IgG:FcR interaction using Bio-Layer Interferometry (OCTET) TNP-BSA was reacted with the EZ-Link™ biotinylation reagent (ThermoFisher Scientific) according to the manufacturer's instructions. The resulting TNP-BSA-biotin (5 μg/ml, 30 sec) was captured to ˜0.8 nm on streptavidin BLI probes using an Octet Red96 (ForteBio; Molecular Devices LLC, San Jose, CA, United States of America) then loaded with anti-TNP IgG (4 μg/ml, 75 sec). A baseline was established (60 sec) followed by the association and dissociation (90s) of a concentration series (15 nM to 20 μM) of rsFcγRIIa-R131 or rsFcγRIIb. Regeneration after each initial reaction TNP-BSA-biotin capture and the subsequent binding cycles used 10 mM HCl.

The target in assay [2] is T2, human FcγRI expressed on the cell surface (human, UniProt P12314 16-374).
T2 construct: whole, on cells; Co-expressed with the FcR common γ chain
Briefly: flow cytometry; monomeric IgG on IIA1.6 cells expressing FcγRI. As to the method:
(§1) Antibody FcγR binding was measured using either immune complexes or monomeric IgG. Immune complexes were generated by incubating the anti-TNP antibodies (parental or mutant anti-TNP IgG) with TNP-BSA at a 2:1 ratio (40 μg/ml:20 μg/ml) for 30 minutes at 37° C. then 10 minutes at 4° C. […] The cells were washed twice, resuspended in […] PBS/0.5% BSA and 10,000 viable cells analysed in at least three experiments. Monomer IgG binding (MFI) were fitted to a single binding site model to determine binding affinity (KA). Similarly immune complex binding is reported as apparent affinity (K app).
(In general: A flow cytometer gives signals particle by particle.)

In assay [3] the target is T3, human FcγRIIa-H131 expressed on the cell surface (human, UniProt P12318 34-317).
T3 construct: whole, on cells
T3 sequence (looked up): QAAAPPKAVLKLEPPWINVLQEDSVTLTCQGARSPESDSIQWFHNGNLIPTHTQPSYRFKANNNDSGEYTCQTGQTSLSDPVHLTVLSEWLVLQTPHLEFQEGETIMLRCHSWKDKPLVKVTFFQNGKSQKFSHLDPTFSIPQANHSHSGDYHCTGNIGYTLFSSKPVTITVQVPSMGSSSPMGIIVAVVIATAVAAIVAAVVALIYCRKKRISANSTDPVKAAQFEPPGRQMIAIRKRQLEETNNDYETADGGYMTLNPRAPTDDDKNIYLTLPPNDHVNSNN
Briefly: flow cytometry; immune complexes with TNP-BSA on IIA1.6 cells expressing the FcγR. Here is the method: as §1
(§2) The interaction of the mutant IgGs with the human FcγRs on the cell surface was evaluated by flow cytometry and compared to the binding of parental IgG2 or IgG4 as well as to IgG1, the “universal” ligand for all human FcγR. Binding to the low affinity human FcγR (FcγRIIb, FcγRIIa, and FcγRIII) was performed using immune complexes (FIG. 1A-E). Binding to the high affinity FcγRI was determined using monomeric IgG (FIG. 1F). […] Uncomplexed, monomeric IgG1 and IgG4, but not IgG2, bound to the high affinity FcγRI.

The target in assay [4] is T4, human FcγRIIa-R131 expressed on the cell surface (human, UniProt P12318 34-317).
T4 construct: whole, on cells
T4 sequence (looked up): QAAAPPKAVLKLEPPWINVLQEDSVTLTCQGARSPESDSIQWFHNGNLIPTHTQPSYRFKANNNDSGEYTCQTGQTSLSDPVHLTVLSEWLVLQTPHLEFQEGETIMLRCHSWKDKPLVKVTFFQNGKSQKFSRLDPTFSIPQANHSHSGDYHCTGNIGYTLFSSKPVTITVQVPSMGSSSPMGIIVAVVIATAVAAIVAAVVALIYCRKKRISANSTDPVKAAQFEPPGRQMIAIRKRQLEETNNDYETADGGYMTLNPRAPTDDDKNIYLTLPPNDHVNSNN
The assay is described as above. Here is the method: as §1, §2

For assay [5], the target named is T5, human FcγRIIIa-F158 expressed on the cell surface (human, UniProt P08637 17-254).
T5 construct: whole, on cells; Co-expressed with the FcR common γ chain (FcRγ-EGFP)
The description is as above. Here is the method: as §1, §2

The target in assay [6] is T6, human FcγRIIIa-V158 expressed on the cell surface (human, UniProt P08637 17-254).
T6 construct: whole, on cells; Co-expressed with the FcR common γ chain (FcRγ-EGFP)
The assay is described as above. Here is the method: as §1, §2

T6 sequence (P08637 17-254 F176V): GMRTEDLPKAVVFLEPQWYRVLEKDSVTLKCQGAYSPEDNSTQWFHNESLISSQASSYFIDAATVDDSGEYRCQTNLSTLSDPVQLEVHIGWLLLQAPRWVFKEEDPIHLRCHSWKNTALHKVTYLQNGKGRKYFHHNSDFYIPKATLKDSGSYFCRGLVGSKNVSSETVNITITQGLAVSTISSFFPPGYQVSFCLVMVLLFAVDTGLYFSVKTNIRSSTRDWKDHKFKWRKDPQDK
T5 sequence (P08637 17-254): as the sequence (P08637 17-254 F176V) above, with V160F counted along it
T2 sequence (P12314 16-374): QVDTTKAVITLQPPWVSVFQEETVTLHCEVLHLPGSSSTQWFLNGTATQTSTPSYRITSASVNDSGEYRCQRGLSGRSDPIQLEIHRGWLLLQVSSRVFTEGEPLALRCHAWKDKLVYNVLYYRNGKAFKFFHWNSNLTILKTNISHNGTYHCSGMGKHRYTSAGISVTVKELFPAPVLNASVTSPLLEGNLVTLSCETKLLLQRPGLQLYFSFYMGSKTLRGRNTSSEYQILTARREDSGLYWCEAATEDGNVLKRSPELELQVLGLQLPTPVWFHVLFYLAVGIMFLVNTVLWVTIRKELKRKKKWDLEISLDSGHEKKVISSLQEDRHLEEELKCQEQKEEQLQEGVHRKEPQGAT

B1: chimeric anti-TNP human IgG2 (IgG2-WT) (antibody)
heavy: EVQLQESGPSLVKPSQTLSLTCSVTGDSITSGYWNWIRQVPGNKLEYMGFINYSGNTYYNPSLRSRISITRDTSKNQYFLHLNSVTTEDTATYYCARANWDVFAYWGQGTLVTVSAASTKGPSVFPLAPCSRSTSESTAALGCLVKDYFPEPVTVSWNSGALTSGVHTFPAVLQSSGLYSLSSVVTVPSSNFGTQTYTCNVDHKPSNTKVDKTVERKCCVECPPCPAPPVAGPSVFLFPPKPKDTLMISRTPEVTCVVVDVSHEDPEVQFNWYVDGVEVHNAKTKPREEQFNSTFRVVSVLTVVHQDWLNGKEYKCKVSNKGLPAPIEKTISKTKGQPREPQVYTLPPSREEMTKNQVSLTCLVKGFYPSDIAVEWESNGQPENNYKTTPPMLDSDGSFFLYSKLTVDKSRWQQGNVFSCSVMHEALHNHYTQKSLSLSLGK
light: not shown
notes: also called parental IgG2; wild type IgG2
As to B1, the Ka in assay [1] stood at 59000 M⁻¹. Moreover, the binding result in assay [2] was “no binding”; in assay [3] it was “binds”; in assay [4], “no binding”; in assay [5], “no binding”; in assay [6], “no binding”.
